For experiment [1], the target named is co-expressed CAP1-GFP/CAP2-GFP (human) (UniProt Q01518). In words: co-purification.
Experiment [2] concerns the target human CAP1 with C-terminal GFP and Strep-tag II (human) (UniProt Q01518). Kind of experiment: co-purification.
Experiment [3] deals with human CAP2 with C-terminal GFP and Strep-tag II (human) (UniProt P40123). Kind of experiment: co-purification.
In experiment [4] the target is human INF2-nonCAAX full-length, untagged (human). Kind of experiment: AUC.
Experiment [5] has as its target CAP in the brain inhibitory fraction (CAP1 and CAP2 of mouse brain) (mouse (endogenous in brain)).
Experiment [6] deals with INF2-Cterm labeled with tetramethylrhodamine (human) (UniProt Q27J81). In words: fluorescence polarisation. On the technique in general: Fluorescence polarisation rises when a labelled molecule tumbles more slowly, as on binding a larger partner.
The target in experiment [7] is GFP-Strep-tagged human INF2-nonCAAX full-length, purified (human).

Sequence of untagged CAP co-purifying with CAP-GFP (likely endogenous HEK293 CAP) (Q01518 whole entry): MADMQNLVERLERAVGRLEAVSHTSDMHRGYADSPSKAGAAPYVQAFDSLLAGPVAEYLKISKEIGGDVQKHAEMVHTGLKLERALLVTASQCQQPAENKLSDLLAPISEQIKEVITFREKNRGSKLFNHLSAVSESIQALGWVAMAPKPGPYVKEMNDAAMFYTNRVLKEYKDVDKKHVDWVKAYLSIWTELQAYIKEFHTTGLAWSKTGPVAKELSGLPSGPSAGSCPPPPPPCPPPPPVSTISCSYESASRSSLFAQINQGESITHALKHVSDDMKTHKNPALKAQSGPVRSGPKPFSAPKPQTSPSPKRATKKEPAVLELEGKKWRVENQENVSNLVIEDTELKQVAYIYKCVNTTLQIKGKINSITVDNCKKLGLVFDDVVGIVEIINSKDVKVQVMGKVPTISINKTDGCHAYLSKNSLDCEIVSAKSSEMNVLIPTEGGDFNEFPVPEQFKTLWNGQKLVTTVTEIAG
Sequence of co-expressed CAP1-GFP/CAP2-GFP (human) (Q01518 whole entry, chain 1 of 2): as the sequence (Q01518 whole entry) above
Sequence of co-expressed CAP1-GFP/CAP2-GFP (human) (P40123 whole entry, chain 2 of 2, further chain): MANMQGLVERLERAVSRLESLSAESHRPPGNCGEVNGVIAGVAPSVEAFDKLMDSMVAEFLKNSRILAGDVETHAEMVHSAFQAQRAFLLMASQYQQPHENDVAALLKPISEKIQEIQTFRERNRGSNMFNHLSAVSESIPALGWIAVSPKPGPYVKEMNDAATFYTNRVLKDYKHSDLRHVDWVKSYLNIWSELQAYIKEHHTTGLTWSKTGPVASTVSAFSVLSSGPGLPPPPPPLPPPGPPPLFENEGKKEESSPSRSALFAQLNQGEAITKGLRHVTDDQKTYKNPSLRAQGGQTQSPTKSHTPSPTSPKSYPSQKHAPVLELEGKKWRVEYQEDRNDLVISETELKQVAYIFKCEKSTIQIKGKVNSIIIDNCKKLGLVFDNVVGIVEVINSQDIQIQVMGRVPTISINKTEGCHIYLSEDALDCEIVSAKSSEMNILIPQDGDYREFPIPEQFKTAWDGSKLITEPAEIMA
Sequence of human CAP1 with C-terminal GFP and Strep-tag II (human) (Q01518 whole entry): as the sequence (Q01518 whole entry) above
Sequence of human CAP2 with C-terminal GFP and Strep-tag II (human) (P40123 whole entry): as the sequence (P40123 whole entry, chain 2 of 2, further chain) above

“actin of HEK293 cells co-purifying with recombinant CAP (from UniProt P60709 1-375) (natural protein)”: the mole percentage compared to CAP-GFP in experiment [1] was 90.5%; in experiment [2] it was 82.5%; in experiment [3], 88.1%.

Consider “human INF2-nonCAAX full-length, untagged (natural protein)”, for which the stoichiometry N in experiment [4] was 2.

Turning to “mouse brain actin (from UniProt P60710 1-375) (natural protein)”, the mole percentage compared to CAP in experiment [5] was found to be 107%.

In turn, “untagged CAP2/actin complex purified from tubastatin A-treated 293 cells (from UniProt P40123;P60709)” returned a Kd in experiment [6] of 1820 nM. Also, in experiment [7], the IC50 of inhibition of INF2-mediated actin polymerization, pyrene-actin assay came to 263 nM.

Regarding “untagged CAP co-purifying with CAP-GFP (likely endogenous HEK293 CAP) (from UniProt Q01518 1-475) (natural protein)”, the results for the mole percentage compared to CAP-GFP in experiment [1], in experiment [2] and in experiment [3] were 16.5%, 16.8% and 16.3%, respectively.

In general, stoichiometry N refers to a count of units in the complex or per binding partner. The term Kd denotes the constant that tells how readily two partners part at equilibrium. High values mean weaker binding, low ones tighter binding.

(Values after PMC6501848.)
